The source of these data is patent publication US20090202526A1 (RINAT NEUROSCIENCE, published 2009).

In experiment [1] the target is T1, Human trkC-Fc fusion protein (human, UniProt Q16288 32-429).
T1 construct: Immobilised on CM5 chip for BIAcore; also called htrkC; not shown: Fc part not described
In words: BIAcore SPR, Fab over immobilised human trkC-Fc. The method, then: (§1) Affinities of anti-trkC Fabs and monoclonal antibodies were determined using the BIAcore 3000™ surface plasmon resonance (SPR) system (BIAcore, INC, Piscaway N.J.). CM5 chips were activated with N-ethyl-N′-(3-dimethylaminopropyl)-carbodiimide hydrochloride (EDC) and N-hydroxysuccinimide (NHS) according to the supplier's instructions. Human or rat trkC-Fc fusion protein was diluted into 10 mM sodium acetate pH 5.0 and injected over the activated chip at a concentration of 0.005 mg/mL. Using variable flow time across the individual chip channels, two ranges of antigen density were achieved: 200-400 response units (RU) for detailed kinetic studies and 500-1000 RU for screening assays. The chip was blocked with ethanolamine. […] HBS-EP buffer (0.01M HEPES, pH 7.4, 0.15 NaCl, 3 mM EDTA, 0.005% Surfactant P20) was used as running buffer for all the BIAcore assays. […] The concentrations of the Fab proteins are determined by ELISA and/or SDS-PAGE electrophoresis using a Fab of known concentration (as determined by amino acid analysis) as a standard. Kinetic association rates (kₒₙ) and dissociation rates (koff) are obtained simultaneously by fitting the data to a 1:1 Langmuir binding model (Karlsson, R. Roos, H. Fagerstam, L. Petersson, B. (1994). Methods Enzymology 6. 99-110) using the BlAevaluation program. Equilibrium dissociation constant (KD) values are calculated as koff/kₒₙ.
We prepared antibody clones bearing the CDR and/or framework region substitution mutations shown in Table 1 and determine KD and other kinetic parameters using BIAcore analysis as described herein.

Experiment [2] has as its target T1, Human trkC-Fc fusion protein. Briefly: BIAcore SPR, human trkC-Fc on chip; KD calculated from koff with 2256 kon 5E5 1/Ms.
In experiment [3] the target is T2, Rat trkC-Fc fusion protein (rat, UniProt Q03351 32-429).
T2 construct: Immobilised on CM5 chip for BIAcore; not shown: Fc part not described
Briefly: BIAcore SPR, Fab over immobilised rat trkC-Fc. As to the method: as §1

B1: Fab clone 129(T8) (Fab, V domains shown)
VH: QVQLVQSGAEVKKPGASVKVSCKASGYTFTSYWMHWVRQAPGQGLEWMGEIYPSNGRTNYNEKFKSRATMTGDKSTSTVYMELSSLRSEDTAVYYCARKYYYGNSRRSWYFDVWGQGTTVTVS
VL: DIQMTQSPSSLSASVGDRVTITCRASESVDNYGISFMNWYQQKPGKAPKLLIYAASNQGSGVPSRFSGSGSGTDFTFTISSLQPEDIATYYCQQSKTVPRTFGQGTKLEIKR
In experiment [1], B1 showed a koff of 0.0016 s⁻¹. The dissociation constant Kd in experiment [2] was 3 nM.

B2: Fab clone 129(T6) (Fab, V domains shown)
VH: QVQLVQSGAEVKKPGASVKVSCKASGYTFTSYWMHWVRQAPGQGLEWMGEIYPSNGRTNYNEKFKSRVTMTGDTSTSTVYMQLSSLRSEDTAVYYCARKYYYGNSKRSWYFDVWGQGTTVTVS
VL: DIQMTQSPSSLSASVGDRVTITCRASESVDNYGISFMNWYQQKPGQAPKLLIYAASNQGSGVPSRFSGSGSGTDFTFTISSLQPEDIATYYCQQSKEVPRTFGQGTKLEIKR
B2 showed an off-rate (koff) in experiment [1] of 0.0034 s⁻¹. In experiment [2], the Kd was 6.4 nM.

B3: Fab clone 129(T8)(E12) (Fab, V domains shown)
VH: QVQLVQSGAEVKKPGASVKVSCKASGYTFTSYWLHWVRQAPGQGLEWMGEIYPSNSRTNYNEKFKSRATMTGDKSTSTVYMELSSLRSEDTAVYYCARKYYYGNSRRSWYFDVWGQGTTVTVS
VL: DIQMTQSPSSLSASVGDRVTITCRASESVDSYGISFMNWYQQKPGKAPKLLIYAASNLGSGVPSRFSGSGSGTDFTFTISSLQPEDIATYYCQQSKTVPRTFGQGTKLEIKR
In experiment [1], B3 yielded a koff of 0.0009 s⁻¹. Besides, the Kd in experiment [2] was 1.8 nM.

B4: Fab clone 129(C16) (Fab, V domains shown)
VH: QVQLVQSGAEVKKPGASVKVSCKASGYTFTSYWMHWVRQAPGQGLEWMGEIYPSNGRTNYNEKFKSRVTMTLDTSTSTVYMQLSSLRSEDTAVYYCARKYYYGNSKRSWYFDVWGQGTTVTVS
VL: DIQMTQSPSSLSASVGDRVTITCRASESVDNYGISFMNWYQQKPGKPPKLLMYAASNQGSGVPSRFSGSGSGTDFTFTISSLQPEDIATYYCQQSKEVPRTFGQGTKLEIKR
For B4, the koff in experiment [1] came to 0.0025 s⁻¹. In addition, the Kd in experiment [2] was 4.7 nM.

B5: Fab clone 129(T8)(E10) (Fab, V domains shown)
VH: QVQLVQSGAEVKKPGASVKVSCKASGYTFTSYRLHWVRQAPGQGLEWMGEIYPSNGRTNYNEKFESRATMTGDKSTSTVYMELSSLRSEDTAVYYCARKYYYGNSRRSWYFDVWGQGTTVTVS
VL: DIQMTQSPSSLSASVGDRVTITCRASESIDNYGISFLAWYQQKPGKAPKLLIYAASNRGSGVPSRFSGSGSGTDFTFTISSLQPEDIATYYCQQSKTVPRTFGQGTKLEIKR
notes: Light chain changes are the same as in A5
In experiment [1], B5 registered a koff of 0.0016 s⁻¹. In experiment [2], the Kd is 3.2 nM.

B6: Fab clone 129(C2) (Fab, V domains shown)
VH: QVQLVQSGAEVKKPGASVKVSCKASGYTFTSYWMHWVRQAPGQGLEWMGEIYPSNGRTNYNEKFKSRVTMTGDTSTSTVYMQLSSLRSEDTAVYYCARKYYYGNSKRSWYFDVWGQGTTVTVS
VL: DIQMTQSPSSLSASVGDRVTITCRASESVDNYGISFMNWYQQKPGQPPKLLIYAASNQGSGVPSRFSGTGSGTDFTFTISSLQPEDIATYYCQQSKEVPRTFGQGTKLEIKR
Molecule B6 registered an off-rate (koff) in experiment [1] of 0.0025 s⁻¹. For the same molecule, the Kd in experiment [2] is 4.7 nM.

B7: Fab clone 129(T34) (Fab, V domains shown)
VH: QVQLVQSGAEVKKPGASVKVSCKASGYTFTSYWMHWVRQAPGQGLEWMGEIYPSNGRTNYNEKFKSRVTMTRDTSTSTVYMQLSSLRSEDTAVYYCARKYYYGNSRRSWYFDVWGQGTTVTVS
VL: DIQMTQSPSSLSASVGDRVTITCRASESVDNYGISFMNWYQQKPGQPPKLLIYAASNQGSGVPSRFSGSGSGTDFTFTISSLQPEDIATYYCQQSKTVPRTFGQGTKLEIKR
In experiment [1], B7 had a koff of 0.0012 s⁻¹. The dissociation constant (Kd) in experiment [2] is 2.3 nM.

B8: Fab clone 129(T8)(H9) (Fab, V domains shown)
VH: QVQLVQSGAEVKKPGASVKVSCKASGYTFTSYWRHWVRQAPGQGLEWMGEIYPSNGRTNYNEKFKSRATMTGDKSTSTVYMELSSLRSEDTAVYYCARKYYYGNSRRSWYFDVWGQGTTVTVS
VL: DIQMTQSPSSLSASVGDRVTITCRASESVDNYGISFMNWYQQKPGKAPKLLIYAASNRGSGVPSRFSGSGSGTDFTFTISSLQPEDIATYYCQQSKTVPRTFGQGTKLEIKR
B8 displayed an off-rate constant (koff) in experiment [1] of 0.0015 s⁻¹. In experiment [2], the Kd is 3 nM.

B9: Fab clone 129(T8)(H8xE10)(10B)(C7) (Fab, V domains shown)
VH: QVQLVQSGAEVKKPGASVKVSCKASGYTFTSYRIHWVRQAPGQGLEWMGEIYPSNTRTNYNEKFKSRVTMTRDTSTSTVYMELSSLRSEDTAVYYCARKYYYGNTRRSWYFDVWGQGTTVTVS
VL: DIQMTQSPSSLSASVGDRVTITCRASESIDNYGISFLAWYQQKPGKAPKLLIYAASNRGSGVPSRFSGSGSGTDFTFTISSLQPEDIATYYCQQSKTVPRTFGQGTKLEIKR
Consider B9, for which, in experiment [3], the affinity, expressed as Kd, was 39 nM; the koff turned out to be 0.03 s⁻¹; the on-rate constant (kon) was 780000 M⁻¹ s⁻¹. In experiment [1], this molecule showed a dissociation constant (Kd) of 1.1 nM, a dissociation rate constant (koff) of 0.00047 s⁻¹ and an association rate constant (kon) of 420000 M⁻¹ s⁻¹.

B10: Fab clone 129(T8)(H8) (Fab, V domains shown)
VH: QVQLVQSGAEVKKPGASVKVSCKASGYTFTSYRIHWVRQAPGQGLEWMGEIYPSNSRTNYNEKFKSRATMTGDKSTSTVYMELSSLRSEDTAVYYCARKYYYGNSRRSWYFDVWGQGTTVTVS
VL: DIQMTQSPSSLSASVGDRVTITCRASESVDNYGISFMTWYQQKPGKAPKLLIYAASNLGSGVPSRFSGSGSGTDFTFTISSLQPEDIATYYCQQSKTVPRTFGQGTKLEIKR
In experiment [1], B10 registered a koff of 0.0006 s⁻¹. For the same molecule, the Kd in experiment [2] was 1.2 nM.

B11: Fab clone 129(T26) (Fab, V domains shown)
VH: QVQLVQSGAEVKKPGASVKVSCKASGYTFTSYWMHWVRQAPGQGLEWMGEIYPSNGRTNYNEKFKSRVTMTLDKSTSTVYMQLSSLRSEDTAVYYCARKYYYGNSRRSWYFDVWGQGTTVTVS
VL: DIQMTQSPSSLSASVGDRVTITCRASESVDNYGISFMNWYQQKPGKPPKLLIYAASNQGSGVPSRFSGSGSGTDFTFTISSLQPEDIATYYCQQSKAVPRTFGQGTKLEIKR
In experiment [1], B11 had a koff of 0.0012 s⁻¹. Moreover, in experiment [2], the Kd was 2.3 nM.

B12: Fab clone 129(C26) (Fab, V domains shown)
VH: QVQLVQSGAEVKKPGASVKVSCKASGYTFTSYWMHWVRQAPGQGLEWMGEIYPSNGRTNYNEKFKSRVTMTGDKSTSTVYMELSSLRSEDTAVYYCARKYYYGNSSRSWYFDVWGQGTTVTVS
VL: DIQMTQSPSSLSASVGDRVTITCRASESVDNYGISFMNWYQQKPGQAPKLLIYAASNQGSGVPSRFSGSGSGTDFTFTISSLQPEDIATYYCQQSKSVPRTFGQGTKLEIKR
In turn, B12 returned a koff in experiment [1] of 0.007 s⁻¹. Further, in experiment [2], the Kd is 13.2 nM.

B13: Fab clone 129(C28) (Fab, V domains shown)
VH: QVQLVQSGAEVKKPGASVKVSCKASGYTFTSYWMHWVRQAPGQGLEWMGEIYPSNGRTNYNEKFKSRATMTGDTSTSTVYMQLSSLRSEDTAVYYCARKYYYGNSQRSWYFDVWGQGTTVTVS
VL: DIQMTQSPSSLSASVGDRVTITCRASESVDNYGISFMNWYQQKPGQAPKLLIYAASNQGSGVPSRFSGSGSGTDFTFTISSLQPEDIATYYCQQSKTVPRTFGQGTKLEIKR
In the case of B13, the koff in experiment [1] turned out to be 0.0019 s⁻¹. The Kd in experiment [2] was 3.6 nM.

B14: Fab clone 129(C36) (Fab, V domains shown)
VH: QVQLVQSGAEVKKPGASVKVSCKASGYTFTSYWMHWVRQAPGQGLEWMGEIYPSNGRTNYNEKFKSRVTMTLDKSTSTVYMQLSSLRSEDTAVYYCARKYYYGNSRRSWYFDVWGQGTTVTVS
VL: DIQMTQSPSSLSASVGDRVTITCRASESVDNYGISFMNWYQQKPGKPPKLLIYAASNQGSGVPSRFSGSGSGTDFTFTISSLQPEDIATYYCQQSKAVPRTFGQGTKLEIKR
Take B14: in experiment [1], the off-rate constant (koff) worked out at 0.002 s⁻¹. Moreover, in experiment [2], the Kd is 3.8 nM.

B15: Fab clone 129(T8)(H8xE10)(9A) (Fab, V domains shown)
VH: QVQLVQSGAEVKKPGASVKVSCKASGYTFTSYRIHWVRQAPGQGLEWMGEIYPSNSRTNYNEKFKSRATMTRDKSTSTVYMELSSLRSEDTAVYYCARKYYYGNSRRSWYFDVWGQGTTVTVS
VL: DIQMTQSPSSLSASVGDRVTITCRASESIDNYGISFLAWYQQKPGKAPKLLIYAASNRGSGVPSRFSGSGSGTDFTFTISSLQPEDIATYYCQQSKTVPRTFGQGTKLEIKR
B15 came in with a koff in experiment [1] of 0.0003 s⁻¹. In experiment [2], the Kd was 0.6 nM.

B16: Fab clone 129(C14) (Fab, V domains shown)
VH: QVQLVQSGAEVKKPGASVKVSCKASGYTFTSYWMHWVRQAPGQGLEWMGEIYPSNGRTNYNEKFKSRVTMTRDKSTSTVYMHLSSLRSEDTAVYYCARKYYYGNSRRSWYFDVWGQGTTVTVS
VL: DIQMTQSPSSLSASVGDRVTITCRASESVDNYGISFMNWYQQKPGQAPKLLIYAASNQGSGVPSRFSGSGSGTDFTFTISSLQPEDIATYYCQQSKEVPRTFGQGTKLEIKR
For the molecule B16, the koff in experiment [1] came to 0.0017 s⁻¹. The dissociation constant (Kd) in experiment [2] was 3.2 nM.
